Measurements: the DeepSol protein solubility set

Assay: soluble on expression in E. coli; label from the status in PepcDB or PDB records

Sequence	soluble on expression in E. coli
AIAGSLGIVTNDPSPYSVHFHLTGFGRFHRVSQNPTEFLVKQFVSFCEERRGLHEAARVVTTTVATTSVKGAQQALDEVYGKLHRDKSVRNVIIHCGVDASANCFRLEERAYNEASFSCPDESGWQPKVVPIDDTKPVDSFLVTSINIRQAVEELEKKGFHVKSSEDAGRFLCNWIYYQSLTRAQCEFSVKVVFVHFPPIQDSQEIQSYCEFLLQLLNVITTHELSSIDE	soluble
KRGPSAVTVVTEQVETHEINQSLSLIGKLKAAESVVVASEVAGKVKQIAVKANQNVQQNQLLIQLDDDKAQAALVEAKAYLKDEERKLKEFQRLVKRNAITQTEIDAQKASVEIAQARLDAAKANLADLHITAPFSGTVGFIDFSRGKMVSAGTELLTLDDLSVMELDLQIPERYLSMLSVGMEVAAKTSAWGEQRFSGKVTGIDTRISAETLNLRVRIEFDNPENQLKPG	not soluble
MCLVQATGGSSTHKLVSAGAEKMIITRPDFVDPPGSKDISITRTARAPKEDKLVIHFCTCRCN	not soluble
MAPINGIRDDDAASIRLRDSFRDEVSKRMGELLLKGQTMLDEYCPTCSGILMEDRALVRRCVTCELFREKSSVIVGEVSLQDEDLNEAVNNKIPTPAAPVNKPAKKAVLQKSAPAKKKEAVPAAAEPSSSDTIESATTAVLQKLEWATDRLNSTEEVARVMDFLSVIQKSAETLKALRI	not soluble
MSLSQHIRKLDSDVSERLKSQACTVSLASAVREIVQNSVDAHATTIDVMIDLPNLSFAVYDDGIGLTRSDLNILATQNYTSKIRKMNDLVTMKTYGYRGDALYSISNVSNLFVCSKKKDYNSAWMRKFPSKSVMLSENTILPIDPFWKICPWSRTKSGTVVIVEDMLYNLPVRRRILKEEPPFKTFNTIKADMLQILVMHPMISLNVQYTDKLRINTEVLFRSKNITEGLTKHQQMSQVLRNVFGAEGHHHHHH	soluble
RLHSDNVYLIENNVFGTTCARVGCMPSKLLIAAAEARHHALHTDPFGVHLDKDSIVVNGEEVMQRVKSERDRFVGFVVADVEEWPADKRIMGSAKFIDEHTVQIDEHTQITAKSFVIATGSRPVILPQWQSLGNRLIINDDVFSWDTLPKRVAVFGPGVIGLELGQALHRLGVKVE	not soluble
MSEKGFSGGCQCGAVRFHAGKLGRPSICHCRMCQKHFGNFFGALVTADQAHLAWTRGQPTLFRSSARIHRGFCNKCGTPLTYHYPGGVEIAIGAFDHPEQIEPQAQVNIHKRMPWIEQLFSKPAIEQSVDEAEITSYQHPDHDTATWPPEGP	not soluble
MSNSFGIKVIACDKIFYNGRCTQLVLPLRDGSKAIQAHHENMVFSVEVGEIKITKEDGSTIVGVTGTGFAQMVNNRATVIVDTCEYPEEIDLRRAEEAKERAEEQLRQKQSIAEYHISKASLARAMARLKEGSGKGTPYGY	not soluble
MIKIYNRKTKAYDVEQVAGLKYINWSYASPIGKSFLELFIKKKMFSKLYGNFCDSSLSKKKIKAFIDEFNIDMSLCNKNIDEFENFNDFFARTLTPEARPIDYSENILISPGDGRLSAFENIDLDKVVQIKGYTYSLKELIDDPKVAEEFEGGTCLILRLCPTDYHRFHFVDSGTCSESKKISGFYYSVNPIALNNVSELFCKNKREWSIFNSDNFGEILHVEVGATCVGTILQTYSPEKRVKKGEEKGYFKFGGSTTILFFKKDTIKIDSDIVEQTKLGFETKVNMGETIGHKLEHHHHHH	soluble
MSLGPADGGGDLVGVAGRESWVQTVPYGMVVCPSGTFHMGQADEDVPATQINLNKQVTIGGFYMDETEITNNEYRQFMNVMLEDSVATLGEEYIMTELYPDTTVWVRDFSHHMGDPMMEYYYAHPAFDEYPVVGVDWWAAKYFCEWRTQHMNNWRAENGLWQMPRFRLPSEAEWEYAARGGRDMAKYPWGNPYIRNSKGCMLANFKPGRGNYYDDGFMYTSPVASYFSNDFGLYDMAGNISEWCEDAYYDAAVPIVWDLNPTYYNDDEVRKIIRGGSWKDIAYYLETGTRTFEYQDTSKSYIGFRTVMTYLGRSSGYEGHHHHHH	not soluble
DYNGQAKCMLEKVGNWNFDIFLFDRLTNGNSLVSLTFHLFSLHGLIEYFHLDMMKLRRFLVMIQEDYHSQNPYHNAVHAADVTQAMHCYLKEPKLANSVTPWDILLSLIAAATHDLDHPGVNQPFLIKTNHYLATLYKNTSVLENHHWRSAVGLLRESGLFSHLPLESRQQMETQIGALILATDISRQNEYLSLFRSHLDRGDLCLEDTRHRHLVLQMALKCADICNPCRTWELSKQWSEKVTEEFFHQGDIEKKYHLGVSPLCDRHTESIANIQIGFMTYLVEPLFTEWARFSNTRLSQTMLGHVGLNKASWKGLQR	soluble
SMGNPQLISAGAKFRAAVAAEQPLQVVGAITAYAAKMAEAVGFKAVYLSGGGVAANSLGIPDLGISTMDDVLVDANRITNATNLPLLVDIDTGWGGAFNIARTIRSFIKAGVGAVHLEDQVGQKRCGHRPGKECVPAGEMVDRIKAAVDARTDETFVIMARTDAAAAEGIDAAIERAIAYVEAGADMIFPEAMKTLDDYRRFKEAVKVPILANLTEFGSTPLFTLDELKGANVDIALYCCGAYRAMNKAALNFYETVRRDGTQKAAVPTMQTRAQLYDYLGYYAYEEKLDQLFNQGRN	soluble
FIKLITSAKKRVWIQTPYLVPDDSVLAALKVAAASGVDVKIMIPDKPDHPFIYRATQYYGRLLMKENIEILIYNGGFLHAKTMIMDDEVCTVGSANQDIRSYKLNFEANAVLYDKKIIDQLEAIFLEDRKKCTTMTPEVVRDM	not soluble
MGSDKIHHHHHHMQPFSSYTVREVIKGGNSMELRSFGNTDIQVSPLGFGAGHIGSDDLSDQEASYILHQALDTGIRLFDTARGYGLSEKRLGQFLKQRRHDVVLSTKVGYDVPRTEDWTFQAVAGGIDQALLTMQTDFIDIVHLHSCSKEILAQDDVIEALERAKQAGKVRLIAYSGDREDLDYAITTGRFDSFQTSVNLYDQRALMDSVPLIHQQQKGIIAKRPIANAPWRFASRPVGQYVEPYWERAQQLDFPLEEASWLETALRFTVFEPGVTSAIIGTANPEHLVQNIRLLEKGALPAERVADLKRRFQEQDENWLQQT	not soluble
MTKQPPIAKADLQKTQGNRAPAAVKNSDVISFINQPSMKEQLAAALPRHMTAERMIRIATTEIRKVPALGNCDTMSFVSAIVQCSQLGLEPGSALGHAYLLPFGNKNEKSGKKNVQLIIGYRGMIDLARRSGQIASLSARVVREGDEFSFEFGLDEKLIHRPGENEDAPVTHVYAVARLKDGGTQFEVMTRKQIELVRSLSKAGNNGPWVTHWEEMAKKTAIRRLFKYLPVSIEIQRAVSMDEKEPLTIDPADSSVLTGEYSVIDNSEE	soluble
MGSDKIHHHHHHMAKSSLGQDSDSTAAVAVLKRAVELDAESRYQQALVCYQEGIDMLLQVLKGTKESSKRCVLRTKISGYMDRAENIKKYLDQEKEDGKYHKQIKIEENATGFSYESLFREYLHETVTEVWIEDPYIRQTHQLYNFLRFCEMLIKKPCKVRTIHLLTSGYEGLGNTQQSSGLEEIKQSLGSHGVVLEINYSSSIHDREIRFNNGWMIKIGRGLDYFKKPQGRFSLGYYDLDLRPCHETTVDIFHNKHTKKI	not soluble
MRNTDRKRAQGVSRLDRRDSRMRRVGTYGGRKLIEYDQERWNILAEKRERAKEVMESLLSFGIESVVYGSVARGDVNEKSDVDIFIPEVIPSYKVEVALDGFEVLEKRIVQATPNYAIKGEFVLSDNTTVSFPLVRMREREMDFYRFGGCVDYRGLMEKRRVPGVDKRLVLIIPTGKGHREIPLTDIHPSSVARMLGVSIDIVTERIRVLTRRREVGRTGIFLCETIPSTDCFEQALKEIASRNPAVRRRLD	not soluble
MIAQLPSELLSLQLPLRIRIGDAQAFDLGPDPQVTMVIRDPSLLTEITHPSLDALGKAYVEKRLDIEGPISQVIGIGDALSEALGEPDGGAPPVRESHDKDTDAEAIHYHYDLSNDFYQLWLDPEMVYSCAYFETGKEDLATAQLAKLRHLCRKLRLQPGEKLLDVGCGWGGLARLAAREFGVEVTGITLSKEQLALGRERVKAEGLEDRVTLKLLDYRDLPRDGRFDKVVSVGMFEHVGHANLGLYFQQLYEAVRPGGLVMNHGITSRYTDGRPVGKGAGDFIDRYVFPHGELPHLSLAVARMSEAGLEVVDVESLRLHYARTLDFWSANLEARLKEAARLVPEETLRIWRLYLAGCAYGFKRGWINL	not soluble
FPDGTLGMDAAVQEDHDNGTQLDSLTLASINTDFAFSLYKELVLKNPDTNIVFSPLSISAALALVSLGAKGNTLEEILEGLKFNLTETSEADIHQGFGHLLQRLNQPKDQVQISTGSALFIEKRQQILTEFQEKAKTLYQAEAFTADFQQPRQAKKLINDYVRKQTQGMIKELVSDLDKRTLMVLVNYIYFKAKWKVPFDPLDTFKSEFYCGKRRPVIVPMMSMEDLTTPYFRDEELSCTVVELKYTGNASALFILPDQGRMQQVEASLQPETLRKWKNSLKPRMIDELHLPKFSISTDYSLEDVLSKLGIREVFSTQADLSAITGTKDLRVSQVVHKAVLDVAETGTEAAAATGVKFVPMSAKLYPLTVYFNRPFLIMIFDTETEIAPFIAKIANPK	soluble
MEYKPMPYPIIDSHCHLDFPKFNPDREEAIQRARKAGVVGMVNSGISLKGNRISLELAEKNEDIHAALGLSPDIGREGSDKDINAILAQIEANAGKAVAIGEAGLDFQDCKTDEERRRQTASFKKVIELAKNLEKPLVVHARMAEAEVLELARDVDTVIYHCYSGSVETMKEIVDAGYYISLATLVCFSEHHQTLAAEVPPENLLLETDSPFLSPRRGRNEPAFIVDSIPVVAEYKEMEPAEIAKFATENARRVFKILEHHHHHH	not soluble
MAHHHHHHMGIGWEKLDNWEDVPDAGGKYGPLRGPSLVDLQGHVFAIAEAHCKDGGDCSDVGFTGIASKYLDLIGVADPTEILTADASIFGADLLKEGSEVISARNGITRPTTLVLGDSVYVLPGNYSHTGPQVGGTNERGLLLLKGTLTDEGGRKKIKWNETHVVEPQGRGDSRSLTELVGGGGSGAVLRDGTLVFPMQAKDKDGTSVLLSMRFPNSGNKWELSSETPGKGCRDPTLVKWEEKKDDERLFMMAHCAGDYYDVYRSTPHGVNWYTSGQPITRVWGNSHNRKGTVSGVDPPPQSLRKRS	not soluble
NGEEHEQTHRAIFRFVPRHEDELELEVDDPLLVELQAEDYWYEAYNMRTGARGVFPAYYAIEVTKEPEHMA	soluble
MGSDKIHHHHHHILFELCFGLAVAQKNLGFIHNDLHSDNIMFKKCQQQFKYYQFHNKFFKVPTWCRETKVIDFARGILKVGKTTYFSDVFKNEGDAGGQYQYLNSQKNKKFNFHFDLARLATTIREFTENKKELQEIDNLLVDWCLNKNGDNFLEMDDDFSLYVMIASTADKCLPKDQIDNKIFRDFLISKEDIPAGEIIY	not soluble
WYGSPQFDGKYVHWDHPLLPHWDPKVASSYSTGRHQPPEDIGANFYPALGPYSSRDPAVLEEHMRQLRMAAVGVLAVSWYPRSMKDDNGEEIDSLLPLILDAADKYQLKVLYNLYVFKNVICINKYV	soluble
MSLKITDLELHAVGIPRHTGFVNKHVIVKIHTDEGLTGIGEMSDFSHLPLYSVDLHDLKQGLLSILLGQNPFDLMKINKELTDNFPETMYYYEKGSFIRNGIDNALHDLCAKYLDISVSDFLGGRVKEKIKVCYPIFRHRFSEEVESNLDVVRQKLEQGFDVFRLYVGKNLDADEEFLSRVKEEFGSRVRIKSYDFSHLLNWKDAHRAIKRLTKYDLGLEMIESPAPRNDFDGLYQLRLKTDYPISEHVWSFKQQQEMIKKDAIDIFNISPVFIGGLTSAKKAAYAAEVASKDVVLGTTQELSVGTAAMAHLGCSLTNINHTSDPTGPELYVGDVVKNRVTYKDGYLYAPDRSVKGLGIELDESLLAKYQVPDLSWDNVTVHQLQDRTADTKSEGHHHHHH	soluble
